Data on five molecules can be found in article PMC8276798, “High-Level Production of Lysine in the Yeast Saccharomyces cerevisiae by Rational Design of Homocitrate Synthase” (Applied and Environmental Microbiology, 2021).

For series [1], the target named is T1, homocitrate synthase ScLys20 (wild type) (Saccharomyces cerevisiae, UniProt P48570).
T1 construct: gene LYS20; N-terminal His-tagged recombinant ScLys20
T1 sequence (P48570 1-428): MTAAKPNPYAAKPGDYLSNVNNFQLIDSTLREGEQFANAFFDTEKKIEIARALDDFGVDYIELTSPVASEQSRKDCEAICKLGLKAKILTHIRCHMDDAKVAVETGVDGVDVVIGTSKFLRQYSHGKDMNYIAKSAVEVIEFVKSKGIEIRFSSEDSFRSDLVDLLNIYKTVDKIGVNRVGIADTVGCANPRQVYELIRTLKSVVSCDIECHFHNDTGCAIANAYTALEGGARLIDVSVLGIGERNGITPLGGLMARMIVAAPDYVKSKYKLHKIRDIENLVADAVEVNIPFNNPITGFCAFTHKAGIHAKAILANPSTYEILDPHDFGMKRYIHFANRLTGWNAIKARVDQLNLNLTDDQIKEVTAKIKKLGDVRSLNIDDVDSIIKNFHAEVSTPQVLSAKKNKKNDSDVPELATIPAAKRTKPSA
Put plainly: DCPIP-coupled HCS activity assay with purified enzyme ([…] 2-OG, […] AcCoA). Format: biochemical.

For series [2], the target named is T2, homocitrate synthase ScLys20 S385E variant (Saccharomyces cerevisiae, UniProt P48570, S385E).
T2 construct: gene LYS20; N-terminal His-tagged recombinant ScLys20
T2 sequence (P48570 1-428 S385E): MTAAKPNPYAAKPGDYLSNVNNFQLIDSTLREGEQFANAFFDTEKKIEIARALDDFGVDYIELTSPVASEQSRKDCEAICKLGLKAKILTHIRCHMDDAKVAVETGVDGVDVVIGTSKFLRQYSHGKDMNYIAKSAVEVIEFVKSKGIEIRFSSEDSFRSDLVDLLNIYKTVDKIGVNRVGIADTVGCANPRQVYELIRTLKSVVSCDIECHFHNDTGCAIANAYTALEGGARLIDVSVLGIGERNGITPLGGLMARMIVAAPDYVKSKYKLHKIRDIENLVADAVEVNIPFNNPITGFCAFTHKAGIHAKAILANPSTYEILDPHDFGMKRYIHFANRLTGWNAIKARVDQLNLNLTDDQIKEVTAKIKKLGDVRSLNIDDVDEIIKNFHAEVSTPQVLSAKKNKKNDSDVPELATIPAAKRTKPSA
The description is as above. Format: biochemical.

Series [3] addresses T3, homocitrate synthase ScLys20 S385F variant (Saccharomyces cerevisiae, UniProt P48570, S385F).
T3 construct: gene LYS20; N-terminal His-tagged recombinant ScLys20
T3 sequence (P48570 1-428 S385F): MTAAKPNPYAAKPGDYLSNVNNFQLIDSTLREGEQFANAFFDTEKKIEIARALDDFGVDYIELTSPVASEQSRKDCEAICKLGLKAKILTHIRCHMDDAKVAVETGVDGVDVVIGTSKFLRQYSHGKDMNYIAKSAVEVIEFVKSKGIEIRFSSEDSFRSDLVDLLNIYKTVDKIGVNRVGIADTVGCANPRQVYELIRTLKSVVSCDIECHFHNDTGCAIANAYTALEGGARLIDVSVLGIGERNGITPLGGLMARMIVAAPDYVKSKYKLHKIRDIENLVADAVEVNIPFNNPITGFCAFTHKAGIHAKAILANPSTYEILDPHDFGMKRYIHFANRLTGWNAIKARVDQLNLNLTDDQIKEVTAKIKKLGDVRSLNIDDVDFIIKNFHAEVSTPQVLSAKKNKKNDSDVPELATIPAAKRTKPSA
The description is as above. In kind it is biochemical.

Substrate in the series “purified protein”: O=C(O)CCC(=O)C(=O)O
Put plainly: purified protein. To be noted: active center.

Substrate in series [4]: CC(=O)SCCNC(=O)CCNC(=O)[C@H](O)C(C)(C)COP(=O)(O)OP(=O)(O)OC[C@H]1O[C@@H](n2cnc3c(N)ncnc32)[C@H](O)[C@@H]1OP(=O)(O)O
Put plainly: steady-state kinetics of purified enzyme, DCPIP assay (apparent Km). In kind it is biochemical, Saccharomyces cerevisiae.

Setting [5] is: Arg31 interacts with 2-OG (homology model).

As usually defined, the IC50 is the midpoint of a concentration-inhibition curve. A low value points to higher potency. As to `NCCCC[C@H](N)C(=O)O` [lysine], the IC50 is 1000 ± 140 µM in series [1], 3200 ± 610 µM in series [2] and 2000 ± 680 µM in series [3].

B1: homocitrate synthase ScLys20 (wild type) (Saccharomyces cerevisiae S288C) (protein)
chain: MTAAKPNPYAAKPGDYLSNVNNFQLIDSTLREGEQFANAFFDTEKKIEIARALDDFGVDYIELTSPVASEQSRKDCEAICKLGLKAKILTHIRCHMDDAKVAVETGVDGVDVVIGTSKFLRQYSHGKDMNYIAKSAVEVIEFVKSKGIEIRFSSEDSFRSDLVDLLNIYKTVDKIGVNRVGIADTVGCANPRQVYELIRTLKSVVSCDIECHFHNDTGCAIANAYTALEGGARLIDVSVLGIGERNGITPLGGLMARMIVAAPDYVKSKYKLHKIRDIENLVADAVEVNIPFNNPITGFCAFTHKAGIHAKAILANPSTYEILDPHDFGMKRYIHFANRLTGWNAIKARVDQLNLNLTDDQIKEVTAKIKKLGDVRSLNIDDVDSIIKNFHAEVSTPQVLSAKKNKKNDSDVPELATIPAAKRTKPSA
notes: N-terminal His-tagged recombinant ScLys20
A word on the Km: it is the concentration of substrate that gives half-maximal velocity. By kcat is commonly meant the maximal rate divided by the concentration of active sites. The term kcat/Km denotes the second-order rate constant that governs catalysis at low substrate concentration. Regarding B1, in the series “purified protein” (setting [5]), the Km came to 4600 ± 1260 µM, the kcat came out at 0.287 s⁻¹ and the kcat/Km stood at 62.5 M⁻¹ s⁻¹. Besides, in series [4], the Km was determined as 24.2 ± 4.21 µM, the kcat amounted to 0.269 ± 0.014 s⁻¹ and the kcat/Km was 11100 M⁻¹ s⁻¹.

B2: homocitrate synthase ScLys20 S385E variant (Saccharomyces cerevisiae S288C; S385E) (protein)
chain: MTAAKPNPYAAKPGDYLSNVNNFQLIDSTLREGEQFANAFFDTEKKIEIARALDDFGVDYIELTSPVASEQSRKDCEAICKLGLKAKILTHIRCHMDDAKVAVETGVDGVDVVIGTSKFLRQYSHGKDMNYIAKSAVEVIEFVKSKGIEIRFSSEDSFRSDLVDLLNIYKTVDKIGVNRVGIADTVGCANPRQVYELIRTLKSVVSCDIECHFHNDTGCAIANAYTALEGGARLIDVSVLGIGERNGITPLGGLMARMIVAAPDYVKSKYKLHKIRDIENLVADAVEVNIPFNNPITGFCAFTHKAGIHAKAILANPSTYEILDPHDFGMKRYIHFANRLTGWNAIKARVDQLNLNLTDDQIKEVTAKIKKLGDVRSLNIDDVDEIIKNFHAEVSTPQVLSAKKNKKNDSDVPELATIPAAKRTKPSA
notes: as for B1
On to B2, for which, in the series “purified protein”, the Km came to 3110 ± 530 µM, the kcat worked out at 0.468 s⁻¹ and the kcat/Km was found to be 150 M⁻¹ s⁻¹. Besides, in series [4], the Michaelis-Menten constant (Km) is 16.1 ± 1.62 µM, the kcat came to 0.241 ± 0.0065 s⁻¹ and the kcat/Km turned out to be 14900 M⁻¹ s⁻¹.

B3: homocitrate synthase ScLys20 S385L variant (Saccharomyces cerevisiae S288C; S385L) (protein)
chain: MTAAKPNPYAAKPGDYLSNVNNFQLIDSTLREGEQFANAFFDTEKKIEIARALDDFGVDYIELTSPVASEQSRKDCEAICKLGLKAKILTHIRCHMDDAKVAVETGVDGVDVVIGTSKFLRQYSHGKDMNYIAKSAVEVIEFVKSKGIEIRFSSEDSFRSDLVDLLNIYKTVDKIGVNRVGIADTVGCANPRQVYELIRTLKSVVSCDIECHFHNDTGCAIANAYTALEGGARLIDVSVLGIGERNGITPLGGLMARMIVAAPDYVKSKYKLHKIRDIENLVADAVEVNIPFNNPITGFCAFTHKAGIHAKAILANPSTYEILDPHDFGMKRYIHFANRLTGWNAIKARVDQLNLNLTDDQIKEVTAKIKKLGDVRSLNIDDVDLIIKNFHAEVSTPQVLSAKKNKKNDSDVPELATIPAAKRTKPSA
Turning to B3, in the series “purified protein”, the Km turned out to be 9500 ± 1990 µM, the kcat stood at 0.436 s⁻¹ and the kcat/Km was 46 M⁻¹ s⁻¹.

B4: homocitrate synthase ScLys20 S385F variant (Saccharomyces cerevisiae S288C; S385F) (protein)
chain: MTAAKPNPYAAKPGDYLSNVNNFQLIDSTLREGEQFANAFFDTEKKIEIARALDDFGVDYIELTSPVASEQSRKDCEAICKLGLKAKILTHIRCHMDDAKVAVETGVDGVDVVIGTSKFLRQYSHGKDMNYIAKSAVEVIEFVKSKGIEIRFSSEDSFRSDLVDLLNIYKTVDKIGVNRVGIADTVGCANPRQVYELIRTLKSVVSCDIECHFHNDTGCAIANAYTALEGGARLIDVSVLGIGERNGITPLGGLMARMIVAAPDYVKSKYKLHKIRDIENLVADAVEVNIPFNNPITGFCAFTHKAGIHAKAILANPSTYEILDPHDFGMKRYIHFANRLTGWNAIKARVDQLNLNLTDDQIKEVTAKIKKLGDVRSLNIDDVDFIIKNFHAEVSTPQVLSAKKNKKNDSDVPELATIPAAKRTKPSA
notes: as for B1
For B4, in the series “purified protein”, the Km turned out to be 1990 ± 450 µM, the kcat stood at 0.483 s⁻¹ and the kcat/Km amounted to 243 M⁻¹ s⁻¹. In series [4], the Km was found to be 22.8 ± 4.88 µM, the kcat turned out to be 0.373 ± 0.023 s⁻¹ and the kcat/Km amounted to 16400 M⁻¹ s⁻¹.
